Laboratory results from patent US20220204609A1.

Columns and labels:
[1] = target: Claudin18.1 on cells (human) (UniProt P56856); test: flow cytometry on 293T-Claudin18.1 cells, antibody at 0.75 µg/mL
[2] = target: Claudin18.1 on cells (human) (UniProt P56856); test: as above; remark: listed apart in the source
[3] = target: Claudin18.1 on cells (human) (UniProt P56856); test: flow cytometry on 293T-Claudin18.1 cells, antibody at 1.5 µg/mL
[4] = target: Claudin18.1 on cells (human) (UniProt P56856); test: flow cytometry on 293T-Claudin18.1 cells, antibody at 0.375 µg/mL
[5] = target: Claudin18.1 on cells (human) (UniProt P56856); test: as above; remark: listed apart in the source
[6] = target: Claudin18.1 on cells (human) (UniProt P56856); test: flow cytometry on 293T-Claudin18.1 cells, antibody at 1.5 µg/mL; remark: listed apart in the source
[7] = target: Claudin18.1 on cells (human) (UniProt P56856); test: flow cytometry on 293T-Claudin18.1 cells, antibody at 3 µg/mL
[8] = target: Claudin18.1 on cells (human) (UniProt P56856); test: as above; remark: listed apart in the source

Claudin18.1 on cells (human), sequence (P56856 whole entry, form in doubt): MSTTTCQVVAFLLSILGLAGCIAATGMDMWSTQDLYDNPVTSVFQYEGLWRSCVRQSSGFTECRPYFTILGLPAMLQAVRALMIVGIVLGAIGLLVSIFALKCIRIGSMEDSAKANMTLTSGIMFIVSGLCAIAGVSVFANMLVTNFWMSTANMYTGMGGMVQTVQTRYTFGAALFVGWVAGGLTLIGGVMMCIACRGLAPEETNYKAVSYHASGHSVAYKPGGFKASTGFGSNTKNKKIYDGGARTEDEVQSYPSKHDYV

mean fluorescence intensity [1]: 32000
mean fluorescence intensity [2]: 20700
mean fluorescence intensity [3]: 24900
mean fluorescence intensity [4]: 15600
mean fluorescence intensity [5]: 12800
mean fluorescence intensity [6]: 17300
mean fluorescence intensity [7]: 12500
mean fluorescence intensity [8]: 35600
Substance: IMAB362 (antibody)
